Experimental data: US20190048076A1

Biological target: CD16 on CD16-transfected BW cells (FcγRIIIA-transfected BW cell line) (UniProt P08637)
Assay: FACS on BW-CD16 cells

UniProt P08637, sequence (P08637 17-254 limits assumed): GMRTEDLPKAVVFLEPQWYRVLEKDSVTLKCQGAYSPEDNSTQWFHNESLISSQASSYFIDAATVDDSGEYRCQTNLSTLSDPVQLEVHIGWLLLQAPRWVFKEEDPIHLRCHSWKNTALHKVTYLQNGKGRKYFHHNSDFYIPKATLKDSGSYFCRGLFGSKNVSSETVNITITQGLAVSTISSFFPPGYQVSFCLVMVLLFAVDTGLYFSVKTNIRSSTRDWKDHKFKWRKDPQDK

rituximab (intact, undigested) (antibody)
binding percentage: 99.8%
